The assay addresses PGDH3-mCherry (protease-free, released from PGDH3-mCherry-TEV-mVenus by TEV cleavage) (Arabidopsis thaliana) (UniProt Q9LT69). The assay can be described thus: mass photometry; TwoMP instrument, 5 nM protein in PBS, 60 s movies.

On to “PGDH3-mCherry (protease-free, released from PGDH3-mCherry-TEV-mVenus by TEV cleavage) (from UniProt Q9LT69 39-588) (enzyme)”, for which the stoichiometry N was 2.

(Values after publication PMC12611452.)
